Among the data in the RNAGym collection of RNA variant scans (doi:10.1093/molbev/msab373) are reverse-splicing fitness values, retold here.

B1: Azoarcus group I ribozyme (parent)
chain: GUGCCUUGCGCCGGGAAACCACGCAAGGGAUGGUGUCAAAUUCGGCGAAACCUAAGCGCCCGCCCGGGCGUAUGGCAACGCCGAGCCAAGCUUCGGCGCCUGCGCCGAUGAAGGUGUAGAGACUAGACGGCACCCACCUAAGGCAAACGCUAUGGUGAAGGCAUAGUCCAGGGAGUGGCGAAAGUCACACAAACCGG

In this data set the parent is B1. The data set is described as follows: reverse-splicing fitness (ratio to wild type); higher = more active; in vitro selection; Mg2+ level not given. A digest of the protocol:
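An in vitro group I ribozyme library with randomized positions was T7-transcribed and gel-purified. In triplicate, 10 pmol RNA in EPPS pH 7.5 was reacted with 50 pmoles of a 30-nt RNA substrate for 1 h at 37 °C across several added MgCl2 levels (1–48 mM), then stopped with EDTA. Products were reverse transcribed from a substrate-complementary primer, PCR-amplified and sequenced (HiSeq 4000). Fitness is a variant's read proportion after selection over that before, normalised to wild type.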
Consider C82A A111G A120G A145G C150G C169U U176C, for which the reverse-splicing fitness was 0.0133. In the case of A111U A120G A145C C150G C169U it was 0.0237; in that of C82A A111G A120U C150U C169A U176G, 0.00235.

With C82U A145C C169G U176A, the reverse-splicing fitness worked out at 0.0179. In the case of A111G A120C A145U C150G C169A, the reverse-splicing fitness amounted to 0.00821.

For C82A A111C A120G C150A C169U U176A, the reverse-splicing fitness is 0.018. In the case of C82A A111G A120G A145U C150U C169A it was 0.0103. The result for C82G A111U A120C A145G C150G C169A U176A reads 0.0145; that for C82U A111U A145U C150A U176C, 0.022. C82A A111C A120C A145C C150U C169A U176A: the reverse-splicing fitness is 0.0145. In the case of A120G C150U U176G it was 0.0157.

Consider C82U A120G A145U C150G C169A, for which the reverse-splicing fitness worked out at 0.00915. With A111C A120U A145G C150U C169G U176C, the reverse-splicing fitness was determined as 0.00994. The result for C82A A111G C150U C169G U176G reads 0.00633; that for A111C A120G A145U C150U C169U U176C, 0.0353; that for C82A A111G A120G A145G C150A C169U U176A, 0.0192. Consider C82A C150G C169G U176A, for which the reverse-splicing fitness came out at 0.00711. As for C82G A111G A120U A145G C150A C169G U176G, the reverse-splicing fitness came out at 0.00219. For A111U A145C C169A U176G, the reverse-splicing fitness came to 0.00602. For C82G A120G A145G C150G C169G U176A, the reverse-splicing fitness was determined as 0.0108. The result for A111U A120U A145G C150U C169G U176C reads 0.00802; that for C82G A111U A120C A145C U176C, 0.0234.

On to C82A A111U A120C A145G C169U U176A, for which the reverse-splicing fitness was found to be 0.0178. C82A A111U A120U A145U C150A C169G U176C: the reverse-splicing fitness came to 0.00291. The result for C82A A111G A120U A145U C150A C169G reads 0.00258. In the case of C82U A111C A120C A145U C150U it was 0.0199; in that of C82U A120U C150G U176G, 0.0022; in that of A111C A120G U176A, 0.0401. A111U A120G A145G C169U U176A: the reverse-splicing fitness came to 0.0467. In the case of C82A A111C A145U C169G U176A, the reverse-splicing fitness was found to be 0.0124. The result for C82G A120G A145U C150U reads 0.0229; that for A120G A145C C169G U176G, 0.0119. In the case of C82A A111C A120C A145G C150U it was 0.0241. In the case of C82U A111G A120U A145U C150U C169G U176A it was 0.0026; in that of A111U A120U A145G C169A U176A, 0.00212. With C82G A120G A145U C150G C169A U176C, the reverse-splicing fitness was 0.0121. Regarding C82G A111G A120G A145U U176G, the reverse-splicing fitness stood at 0.00543. The result for C82A A111G C150U U176C reads 0.127; that for C82G A111C C150G C169A U176G, 0.00647; that for C82U A120U A145G C150A C169U U176C, 0.00329. As for C82U A120U A145G C150A C169U U176A, the reverse-splicing fitness is 0.0038. The result for C82U A120U A145G C150A C169U U176G reads 0.00199. For C82A A111G A120G C150A U176A, the reverse-splicing fitness was 0.0129. As to C169U U176C, the reverse-splicing fitness is 0.182. In the case of C82G A111G A145G C150U U176C it was 0.213; in that of A120G C150A U176G, 0.0094.

For C82U A111U A120G A145C C150A C169G, the reverse-splicing fitness was 0.00785. Turning to C82A A111U A120C A145U C150A, the reverse-splicing fitness came out at 0.0107. Consider C82A A111G A145U C150A C169U, for which the reverse-splicing fitness amounted to 0.0106.

Consider C82A A111U A120C A145U C150A C169G U176G, for which the reverse-splicing fitness is 0.00723.

As for A111G A120U A145C U176G, the reverse-splicing fitness was 0.131. The result for A111G A120G A145U C150G C169U reads 0.0301.

As to C82U A111U A145C C150A C169A U176C, the reverse-splicing fitness was determined as 0.00618.

A111U A120G C150G C169G U176A: the reverse-splicing fitness was found to be 0.00621. Take C82U A111C A120G C150U U176G: the reverse-splicing fitness worked out at 0.00514. In the case of A120U A145U C150G C169G U176C, the reverse-splicing fitness turned out to be 0.00304. In the case of C82A A111U A120C A145C C150A C169A it was 0.01; in that of C82G A120C A145G C150G C169A, 0.0104; in that of C82A A111U A120C A145U C150U C169A U176G, 0.00837.

In the case of A111C A120U A145G C150G U176G, the reverse-splicing fitness came out at 0.00515. For C82G A111C A145G C150G U176A, the reverse-splicing fitness was found to be 0.0138.

With C150U U176A, the reverse-splicing fitness came out at 0.814. In the case of C82A A111C A120U C150U U176A it was 0.00771; in that of C82G A111C A120C A145U C150A C169U U176C, 0.0133; in that of C82G A111G A120C A145G C150G C169U U176C, 0.0142. In the case of C82A A120U A145C C150U C169A it was 0.00197; in that of C82U A111G A145G C150A C169U U176G, 0.00552; in that of C82U A111U A120C A145G C150G U176G, 0.00575.

For the variant C82A A111U A120G C150G U176G, the reverse-splicing fitness came to 0.00319. With C82A A111G A145C, the reverse-splicing fitness was 0.41. The result for A111G A145U C150U C169A U176C reads 0.0144; that for A111G A145G C150U C169A, 0.0452.

Take A111G A145G C150U C169U: the reverse-splicing fitness came out at 0.168. In the case of C82G A111C A120U A145G C150U C169U U176A it was 0.00549. C82G A111C A120U A145G C150U C169U U176C: the reverse-splicing fitness turned out to be 0.00492. Regarding C82G C150G, the reverse-splicing fitness was 0.0318. With C82A A120U A145U C169G, the reverse-splicing fitness is 0.00509.

Consider C82G A120C A145G C150U C169A U176A, for which the reverse-splicing fitness was 0.0194. On to A111G A145G C150G U176A, for which the reverse-splicing fitness came out at 0.111.

Regarding C82G A120G A145U C169U U176G, the reverse-splicing fitness worked out at 0.00349. With A111U C150U U176G, the reverse-splicing fitness was determined as 0.251. The result for C82A A111G A145G C150G C169U U176A reads 0.0112; that for C82A A111G A120C A145U C169G, 0.00967. C82A A111G A120U A145C C150U U176G: the reverse-splicing fitness came to 0.00292.
